Patent US20250002587A1 (University of California, published 2025)
Where two headings read alike, the source gives them in different places.

What was measured:
[1] = molecular target: T1, cell surface-expressed human αvβ8 (human, UniProt P06756 31-1048; P26012 43-769); assay: cell-based or functional assay
[2] = molecular target: T2, cell surface expressed human αvβ3 (SW480 cells transfected to express αvβ3) (human, UniProt P06756 31-1048; P05106 27-788); assay: flow cytometry on transfected SW480 cells
T2 construct: whole, on cells
Procedure: (§1) The binding of ADWA16 and ADWA16-3.2 to cell surface expressed human αvβ3, αvβ5, αvβ6, and αvβ8 was tested by FACS. Flow cytometry was performed with either ADWA16-3 or ADWA16-3.2 with mock transfected SW480 cells (that express only αvβ5 integrin). SW480 cells were also transfected to express αvβ3 or αvβ6. SNB19 cells expressed αvβ3, αvβ5, and αvβ8.

[3] = molecular target: T3, cell surface expressed human αvβ6 (SW480 cells transfected to express αvβ6) (human, UniProt P06756 31-1048; P18564 22-788); assay: flow cytometry on transfected SW480 cells
T3 construct: whole, on cells
Procedure: as §1

[4] = molecular target: T4, recombinant mouse αvβ8 (mouse, UniProt P43406 31-988; Q0VBD0 43-681, limits assumed); assay: bio-layer interferometry, IgG on anti-human Fab-CH1 tips, αvβ8 200 nM
T4 construct: Soluble recombinant heterodimer used as analyte at 200 nM in BLI
Procedure: (§2) The affinities of humanized, affinity-matured anti-αvβ8 IgGs (ADWA16-1, ADWA16-2, ADWA16-3, and ADWA16-4) and a chimeric version of the parent ADWA-16 murine IgG (ADWA16-chimera) were measured for recombinant human and mouse αvβ8 using bio-layer interferometry. Anti-human Fab-CH1 tips were loaded with humanized anti-αvβ8 IgGs (ADWA16-1, ADWA16-2, ADWA16-3, and ADWA16-4) or chimeric ADWA-16 followed by an association step with either human or mouse αvβ8 (200 nM) and a subsequent dissociation step. All steps were carried out in binding buffer (25 mM Tris, 0.15 M NaCl, 0.05% Tween-20, pH 7.5). Binding affinities (shown in Table 2) were calculated using curve-fitting software. FIGS. 3A-3E show association/dissociation curves for each antibody.

[5] = molecular target: T5, recombinant human αvβ8 (human, UniProt P06756 31-992; P26012 43-684); assay: as above
T5 construct: Soluble recombinant heterodimer used as analyte at 200 nM in BLI
Procedure: as §2

[6] = molecular target: T4, recombinant mouse αvβ8; assay: as above; remark: listed apart in the source
Procedure: (§3) The affinities of humanized, affinity-matured anti-αvβ8 IgGs (ADWA16-3 and ADWA16-3.2) and a chimeric version of the parent ADWA16 murine IgG (ADWA16-chimera) were measured for recombinant human and mouse αvβ8 using bio-layer interferometry. Anti-human Fab-CH1 tips were loaded with humanized anti-αvβ8 IgGs or chimeric ADWA16 followed by an association step with either human or mouse αvβ8 (200 nM) and a subsequent dissociation step. All steps were carried out in binding buffer (25 mM Tris, 0.15 M NaCl, 0.05% Tween-20, pH 7.5). Binding affinities (shown in Table 4) were calculated using curve-fitting software.

[7] = molecular target: T5, recombinant human αvβ8; assay: as above; remark: listed apart in the source
Procedure: as §3

[8] = molecular target: T1, cell surface-expressed human αvβ8; assay: FACS titration on SNB19 human astrocytoma cells; Example 7 FACS series on SNB19 cells, run beside ADWA16-3.2
Procedure: (§4) The affinities of humanized, affinity-matured, and N-glycosylation site removed anti-αvβ8 IgGs (ADWA16-3 and ADWA16-3.2) were measured on SNB19 human astrocytoma cells by FACS. IgGs were incubated at various concentrations with SNB19 cells for 1 hr at RT in PBS. Cells were washed twice with PBS and binding was detected by incubation with fluorescently-labeled anti-human secondary antibodies followed by two PBS wash steps and analysis by FACS.

[9] = molecular target: T6, cell surface expressed human αvβ5 (mock transfected SW480 cells) (human, UniProt P06756 31-1048; P18084 24-799); assay: flow cytometry on mock transfected SW480 cells (express only αvβ5); panel head 'A09 SW antihuman con'
T6 construct: whole, on cells
Procedure: as §1

[10] = molecular target: T1, cell surface-expressed human αvβ8; assay: FACS titration on SNB19 human astrocytoma cells; Table 3 FACS series on SNB19 cells, run beside ADWA16, 16-chimera and 16-1 to 16-4
Procedure: (§5) The affinities of humanized, affinity-matured anti-αvβ8 IgGs (ADWA16-1, ADWA16-2, ADWA16-3, and ADWA16-4), a chimeric version of the parent ADWA16 murine IgG (ADWA16-chimera), and ADWA16 were measured on SNB19 human astrocytoma cells by FACS. IgGs were incubated at various concentrations with SNB19 cells for 1 hr at RT in PBS. Cells were washed twice with PBS and binding was detected by incubation with fluorescently-labeled anti-human (ADWA16-1, ADWA16-2, ADWA16-3, ADWA16-4, and ADWA16-chimera) or anti-mouse (ADWA16) secondary antibodies followed by two PBS wash steps and analysis by FACS. Binding affinities (shown in Table 3) were calculated using curve-fitting software.

[11] = molecular target: T1, cell surface-expressed human αvβ8; assay: FACS titration on SNB19 human astrocytoma cells
Procedure: as §5

[12] = molecular target: T7, surface-expressed mouse αvβ8 on murine astrocytes (mouse, UniProt P43406 31-1044; Q0VBD0 22-767); assay: FACS titration on murine astrocytes
T7 construct: whole, on cells
Procedure: The affinities of ADWA16, ADWA11, and ADWA16-3.2 were measured on murine astrocytes by FACS. IgGs were incubated at various concentrations with the cells for 1 hr at RT in PBS. Cells were washed twice with PBS and binding was detected by incubation with fluorescently-labeled anti-human or anti-mouse secondary antibodies followed by two PBS wash steps and analysis by FACS.

[13] = molecular target: T1, cell surface-expressed human αvβ8; assay: FACS on SNB19 human astrocytoma cells, fluorescent secondary antibody
Procedure: (§6) The affinities of ADWA16-3.2 and ADWA11 were measured on SNB19 human astrocytoma cells by FACS. IgGs were incubated at various concentrations with SNB19 cells for 1 hour at RT in PBS. Cells were washed twice with PBS and binding was detected by incubation with fluorescently-labeled anti-human secondary antibodies followed by two PBS wash steps and analysis by FACS. Binding affinities were calculated using curve-fitting software.

[14] = molecular target: T1, cell surface-expressed human αvβ8; assay: FACS titration on SNB19 human astrocytoma cells; Example 13 FACS series on SNB19 cells, run beside ADWA11
Procedure: as §6

[15] = molecular target: T1, cell surface-expressed human αvβ8; assay: FACS titration on SNB19 human astrocytoma cells; Example 7 FACS series on SNB19 cells, run beside ADWA16-3
Procedure: as §4

[16] = molecular target: T1, cell surface-expressed human αvβ8; assay: FACS titration on SNB19 human astrocytoma cells; Example 13 FACS on SNB19 cells; detected with anti-human secondary, ADWA11 format not stated
Procedure: as §6

T5 sequence (P06756 31-992 limits assumed, chain 1 of 2): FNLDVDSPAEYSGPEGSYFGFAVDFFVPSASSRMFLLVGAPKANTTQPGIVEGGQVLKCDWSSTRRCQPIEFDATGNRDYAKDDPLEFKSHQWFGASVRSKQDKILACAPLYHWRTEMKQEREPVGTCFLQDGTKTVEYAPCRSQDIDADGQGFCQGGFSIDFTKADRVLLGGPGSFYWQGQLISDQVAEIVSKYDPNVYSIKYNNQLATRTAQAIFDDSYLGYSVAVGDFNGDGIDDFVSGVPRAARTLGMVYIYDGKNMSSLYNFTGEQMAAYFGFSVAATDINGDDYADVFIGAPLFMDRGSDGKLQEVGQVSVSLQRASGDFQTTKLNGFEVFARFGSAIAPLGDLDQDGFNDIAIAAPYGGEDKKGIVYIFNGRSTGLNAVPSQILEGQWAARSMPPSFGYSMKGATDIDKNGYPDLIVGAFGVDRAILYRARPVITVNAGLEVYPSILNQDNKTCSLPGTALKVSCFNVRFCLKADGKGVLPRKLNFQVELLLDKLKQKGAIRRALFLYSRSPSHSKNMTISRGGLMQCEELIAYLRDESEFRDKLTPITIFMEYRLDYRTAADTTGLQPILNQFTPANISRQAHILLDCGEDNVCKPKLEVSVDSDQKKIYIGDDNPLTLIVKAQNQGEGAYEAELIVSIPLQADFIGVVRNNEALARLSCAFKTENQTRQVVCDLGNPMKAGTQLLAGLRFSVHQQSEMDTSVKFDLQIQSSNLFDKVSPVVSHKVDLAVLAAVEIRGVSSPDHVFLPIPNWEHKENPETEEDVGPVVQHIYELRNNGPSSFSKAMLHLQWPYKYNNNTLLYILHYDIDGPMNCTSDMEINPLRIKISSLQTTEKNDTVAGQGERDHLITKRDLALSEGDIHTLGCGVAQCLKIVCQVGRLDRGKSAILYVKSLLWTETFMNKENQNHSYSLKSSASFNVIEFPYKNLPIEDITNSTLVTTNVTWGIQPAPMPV
T5 sequence (P26012 43-684 limits assumed, chain 2 of 2): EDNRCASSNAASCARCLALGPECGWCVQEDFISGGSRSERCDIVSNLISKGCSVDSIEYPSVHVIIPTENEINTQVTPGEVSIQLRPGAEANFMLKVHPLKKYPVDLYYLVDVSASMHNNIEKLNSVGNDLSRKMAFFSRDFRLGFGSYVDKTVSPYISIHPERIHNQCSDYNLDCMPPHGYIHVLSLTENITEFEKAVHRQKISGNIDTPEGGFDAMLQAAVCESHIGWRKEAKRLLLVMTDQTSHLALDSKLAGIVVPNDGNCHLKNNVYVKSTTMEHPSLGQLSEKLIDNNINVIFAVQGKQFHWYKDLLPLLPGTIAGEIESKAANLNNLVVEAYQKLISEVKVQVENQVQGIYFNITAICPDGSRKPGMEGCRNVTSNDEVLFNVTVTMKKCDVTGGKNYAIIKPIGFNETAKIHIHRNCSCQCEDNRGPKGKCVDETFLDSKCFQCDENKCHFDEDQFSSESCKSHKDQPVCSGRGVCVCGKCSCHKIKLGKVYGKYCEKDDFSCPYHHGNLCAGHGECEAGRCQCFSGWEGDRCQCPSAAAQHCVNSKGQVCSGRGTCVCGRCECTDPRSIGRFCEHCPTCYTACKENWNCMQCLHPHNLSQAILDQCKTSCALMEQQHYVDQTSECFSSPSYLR
T1 sequence (P06756 31-1048, chain 1 of 2): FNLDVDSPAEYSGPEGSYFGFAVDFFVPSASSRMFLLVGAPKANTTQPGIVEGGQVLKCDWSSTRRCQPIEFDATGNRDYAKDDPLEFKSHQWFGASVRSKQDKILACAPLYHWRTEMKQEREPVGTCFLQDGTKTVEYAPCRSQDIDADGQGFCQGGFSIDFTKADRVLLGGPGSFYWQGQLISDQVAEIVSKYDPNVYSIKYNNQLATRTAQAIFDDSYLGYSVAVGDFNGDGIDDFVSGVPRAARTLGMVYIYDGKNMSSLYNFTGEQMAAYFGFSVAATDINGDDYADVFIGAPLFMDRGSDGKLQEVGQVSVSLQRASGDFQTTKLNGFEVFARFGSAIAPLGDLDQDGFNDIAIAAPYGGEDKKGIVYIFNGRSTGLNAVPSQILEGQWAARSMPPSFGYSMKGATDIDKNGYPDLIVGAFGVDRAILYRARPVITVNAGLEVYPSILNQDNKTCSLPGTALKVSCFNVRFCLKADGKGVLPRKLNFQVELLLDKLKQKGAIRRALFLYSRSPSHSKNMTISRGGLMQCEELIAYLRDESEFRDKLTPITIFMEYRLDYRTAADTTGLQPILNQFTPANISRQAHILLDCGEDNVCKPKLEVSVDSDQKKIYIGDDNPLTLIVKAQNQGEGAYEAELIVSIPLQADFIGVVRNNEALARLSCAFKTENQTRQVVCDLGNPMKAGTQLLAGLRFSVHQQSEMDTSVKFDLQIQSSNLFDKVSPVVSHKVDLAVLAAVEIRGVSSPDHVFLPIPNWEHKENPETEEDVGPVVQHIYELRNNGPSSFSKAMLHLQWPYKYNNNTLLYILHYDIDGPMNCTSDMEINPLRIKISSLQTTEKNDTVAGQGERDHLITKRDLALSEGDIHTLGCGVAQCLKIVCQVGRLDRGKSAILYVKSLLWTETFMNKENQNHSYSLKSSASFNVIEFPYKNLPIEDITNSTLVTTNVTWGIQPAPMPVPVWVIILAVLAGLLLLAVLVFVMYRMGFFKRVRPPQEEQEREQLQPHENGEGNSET
T1 sequence (P26012 43-769, chain 2 of 2): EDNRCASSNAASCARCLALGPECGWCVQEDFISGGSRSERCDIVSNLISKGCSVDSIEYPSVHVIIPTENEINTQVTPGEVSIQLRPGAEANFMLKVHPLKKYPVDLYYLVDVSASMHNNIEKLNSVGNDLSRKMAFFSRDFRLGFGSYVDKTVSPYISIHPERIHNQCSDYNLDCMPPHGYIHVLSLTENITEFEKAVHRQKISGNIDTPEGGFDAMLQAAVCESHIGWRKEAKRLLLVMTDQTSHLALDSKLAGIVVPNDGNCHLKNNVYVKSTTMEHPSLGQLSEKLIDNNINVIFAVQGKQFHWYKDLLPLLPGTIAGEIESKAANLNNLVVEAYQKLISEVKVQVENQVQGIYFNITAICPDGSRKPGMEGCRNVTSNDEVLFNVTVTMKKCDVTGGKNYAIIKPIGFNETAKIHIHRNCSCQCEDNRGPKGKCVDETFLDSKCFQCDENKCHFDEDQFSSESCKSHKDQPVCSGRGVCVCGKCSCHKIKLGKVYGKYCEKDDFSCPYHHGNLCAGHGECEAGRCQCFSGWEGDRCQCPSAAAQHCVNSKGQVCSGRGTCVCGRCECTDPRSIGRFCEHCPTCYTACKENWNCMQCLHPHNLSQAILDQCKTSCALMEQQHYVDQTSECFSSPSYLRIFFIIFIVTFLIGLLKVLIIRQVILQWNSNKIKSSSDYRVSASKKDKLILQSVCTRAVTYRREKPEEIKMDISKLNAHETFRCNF
T4 sequence (P43406 31-988 limits assumed, chain 1 of 2): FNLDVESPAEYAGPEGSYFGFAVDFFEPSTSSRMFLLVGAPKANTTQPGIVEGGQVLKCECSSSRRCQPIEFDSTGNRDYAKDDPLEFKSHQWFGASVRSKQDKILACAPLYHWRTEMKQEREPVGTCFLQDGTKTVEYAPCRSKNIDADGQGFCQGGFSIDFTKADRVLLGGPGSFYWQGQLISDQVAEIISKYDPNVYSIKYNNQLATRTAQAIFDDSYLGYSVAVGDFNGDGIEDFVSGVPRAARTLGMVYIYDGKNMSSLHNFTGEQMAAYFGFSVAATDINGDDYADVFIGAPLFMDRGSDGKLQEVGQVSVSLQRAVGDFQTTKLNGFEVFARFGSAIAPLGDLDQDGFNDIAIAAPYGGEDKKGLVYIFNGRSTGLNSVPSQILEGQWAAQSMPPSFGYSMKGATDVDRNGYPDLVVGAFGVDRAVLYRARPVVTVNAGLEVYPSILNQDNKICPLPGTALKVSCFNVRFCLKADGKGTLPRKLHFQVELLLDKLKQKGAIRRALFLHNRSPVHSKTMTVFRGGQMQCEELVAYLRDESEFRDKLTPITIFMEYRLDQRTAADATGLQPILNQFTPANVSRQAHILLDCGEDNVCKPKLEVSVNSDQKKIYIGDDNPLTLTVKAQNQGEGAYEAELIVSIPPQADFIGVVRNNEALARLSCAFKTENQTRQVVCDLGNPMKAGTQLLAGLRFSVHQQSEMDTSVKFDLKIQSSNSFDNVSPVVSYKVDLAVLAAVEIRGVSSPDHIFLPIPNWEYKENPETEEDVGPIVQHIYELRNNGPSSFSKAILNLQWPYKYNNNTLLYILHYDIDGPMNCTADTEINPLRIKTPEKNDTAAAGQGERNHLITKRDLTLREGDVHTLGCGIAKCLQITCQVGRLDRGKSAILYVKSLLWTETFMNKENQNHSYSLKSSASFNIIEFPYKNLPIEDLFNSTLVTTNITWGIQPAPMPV
T4 sequence (Q0VBD0 43-681 limits assumed, chain 2 of 2): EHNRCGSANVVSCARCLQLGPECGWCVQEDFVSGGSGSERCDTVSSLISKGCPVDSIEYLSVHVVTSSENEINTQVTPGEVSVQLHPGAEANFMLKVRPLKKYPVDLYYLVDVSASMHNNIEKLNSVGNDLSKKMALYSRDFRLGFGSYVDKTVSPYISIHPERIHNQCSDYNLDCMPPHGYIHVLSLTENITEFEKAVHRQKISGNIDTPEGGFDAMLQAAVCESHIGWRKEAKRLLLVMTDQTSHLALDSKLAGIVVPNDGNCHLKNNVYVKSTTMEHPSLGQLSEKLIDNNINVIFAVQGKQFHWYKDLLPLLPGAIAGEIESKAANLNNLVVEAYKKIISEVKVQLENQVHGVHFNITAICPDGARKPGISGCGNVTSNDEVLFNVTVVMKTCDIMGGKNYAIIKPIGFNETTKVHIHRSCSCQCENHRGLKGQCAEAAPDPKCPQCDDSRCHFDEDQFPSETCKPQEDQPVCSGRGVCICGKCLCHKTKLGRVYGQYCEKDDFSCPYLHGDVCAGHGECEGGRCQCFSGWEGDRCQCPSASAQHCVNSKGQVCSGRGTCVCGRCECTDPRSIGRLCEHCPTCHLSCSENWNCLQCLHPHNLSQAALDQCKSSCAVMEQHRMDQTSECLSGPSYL

| IC50, inhibition of TGFβ activation (SNB19 / TMLC luciferase reporter co-culture) [1] [pM] | Kd [4] [nM] | Kd [5] [nM] | Kd [6] [nM] | Kd [7] [nM] | Kd [11] [nM] | Binder | also measured |
| --- | --- | --- | --- | --- | --- | --- | --- |
| 1360 | 5 | 0.83 | 3.15 | 1.16 | – | ADWA16-3 (antibody, V domains shown) VH: EVQLVESGGGLVQPGGSLRLSCAVSGYIFSSYWVYWVRQAPGKGLEWVGYINPTTGYTEYADSVKGRFTISRDNSKNTLYLQMNSLRAEDTAVYYCATEGGNWEDYWGQGTLVTVSS VL: DIQMTQSPSSLSASVGDRVTITCRASQDISNYINWYQQKPGKAPKLLIYYTSRLYGGVPSRFSGSGSGTDFTLTISSLQPEDFATYYCQQFSELPRTFGQGTKVEIK | binding result [2]: no binding; binding result [3]: no binding; Kd [8]: 0.83 nM; binding result [9]: no binding; Kd [10]: 0.389 nM |
| – | 8.5 | 2 | – | – | 0.498 | ADWA16-2 (antibody, V domains shown) VH: EVQLVESGGGLVQPGGSLRLSCAVSGYIFSSYWVYWVRQAPGKGLEWVGYINPTTGYTEYADSVKGRFTISRDNSKNTLYLQMNSLRAEDTAVYYCATEGGNWEDYWGQGTLVTVSS VL: DIQMTQSPSSLSASVGDRVTITCRASKDISNYLNWYQQKPGKAPKLLIYYTSRLYSGVPSRFSGSGSGTDFTLTISSLQPEDFATYYCQQFSELPRTFGQGTKVEIK | – |
| – | 8 | 0.86 | – | – | 0.614 | ADWA16-4 (antibody, V domains shown) VH: EVQLVESGGGLVQPGGSLRLSCAVSGYIFSSYWVYWVRQAPGKGLEWVGYINPTTGYTEYADSVKGRFTISRDNSKNTLYLQMNSLRAEDTAVYYCATEGGNWEDYWGQGTLVTVSS VL: DIQMTQSPSSLSASVGDRVTITCRASKDISNYINWYQQKPGKAPKLLIYYTSRLYGGVPSRFSGSGSGTDFTLTISSLQPEDFATYYCQQFSELPRTFGQGTKVEIK | – |
| 580 | – | – | 1.06 | 0.688 | – | ADWA16-3.2 (antibody, V domains shown, also called humanized derivative of ADWA16) VH: EVQLVESGGGLVQPGGSLRLSCAVSGYIFSSYWVYWVRQAPGKGLEWVGYISPTTGYTVYADSVKGRFTISRDNSKNTLYLQMNSLRAEDTAVYYCATEGGNWEDYWGQGTLVTVSS VL: DIQMTQSPSSLSASVGDRVTITCRASQDISNYINWYQQKPGKAPKLLIYYTSRLYGGVPSRFSGSGSGTDFTLTISSLQPEDFATYYCQQFSELPRTFGQGTKVEIK | IC50, inhibition of SNB19 cell adhesion to TGFb1 LAP [1]: 650 pM; IC50, inhibition of SNB19 cell adhesion to TGFβ1-LAP [1]: 2.1 nM; Kd [12]: 1.1 nM; binding result [2]: no binding; binding result [3]: no binding; EC50 (read off the curve) [13]: ~0.4 nM; Kd [14]: 0.392 nM; Kd [15]: 0.512 nM; binding result [9]: no binding |
| – | 4.8 | 0.73 | – | – | 0.459 | ADWA16-1 (antibody, V domains shown) VH: EVQLVESGGGLVQPGGSLRLSCAVSGYIFSSYWVYWVRQAPGKGLEWVGYINPTTGYTEYADSVKGRFTISRDNSKNTLYLQMNSLRAEDTAVYYCATEGGNWEDYWGQGTLVTVSS VL: DIQMTQSPSSLSASVGDRVTITCRASQDISNYINWYQQKPGKAPKLLIYYTSRLYSGVPSRFSGSGSGTDFTLTISSLQPEDFATYYCQQFSELPRTFGQGTKVEIK | – |
| 364 | – | – | – | – | 0.417 | ADWA16 (antibody, V domains shown, Murine IgG, detected with anti-mouse secondary antibody; also called parent murine IgG; murine parent ADWA16) VH: QVQLQQSGAELAKPGASMKMSCKASGYTFSSYWIYWVKQRPGQGLEWIGYINPTTGYTEYNQKFRDKATLTADKSSNTAYMQLSSLTSEDSAVYYCATEGGNWEDYWGQGTTLTVSS VL: DIQMTQTTSSLSASLGDRVTISCRASQDISNYLNWYQQKPDGTVKLLIYYTSRLYSGVPSRFSGSGSGTDYSLTISNLEPKDIATYYCQQFSELPRTFGGGTKLEIK | IC50, inhibition of SNB19 cell adhesion to TGFβ1-LAP [1]: 1.1 nM; inhibition of adhesion of L229 cells to LAP (potency relative to ADWA11) [1]: ~10 fold |
| – | 21 | 0.95 | 21 | 0.95 | 0.302 | ADWA16-chimera (antibody, V domains shown, It was captured on anti-human Fab-CH1 tips and detected with anti-human secondary, so it has human constant regions; also called chimeric ADWA-16; chimeric version of the parent ADWA16 murine IgG) VH: QVQLQQSGAELAKPGASMKMSCKASGYTFSSYWIYWVKQRPGQGLEWIGYINPTTGYTEYNQKFRDKATLTADKSSNTAYMQLSSLTSEDSAVYYCATEGGNWEDYWGQGTTLTVSS VL: DIQMTQTTSSLSASLGDRVTISCRASQDISNYLNWYQQKPDGTVKLLIYYTSRLYSGVPSRFSGSGSGTDYSLTISNLEPKDIATYYCQQFSELPRTFGGGTKLEIK | – |
| – | – | – | – | – | – | ADWA11 (antibody, V domains shown, IgG; also called ADWA1l) VH: EVQLQQSGAELVRPGAFVKLSCKASGFNIKDYYMNWVLQRPEQGLEWIGWIDPDNGNTIYDPKFQGKASITADTSSNTAYLQLSSLTSEDTAVYYCARRLLMDYWGQGTSVTVSS VL: DIVMTQAAPSVPVTPGESVSISCRSTKSLLHFNGNTYLFWFLQRPGQSPQRLIYYMSNLASGVPDRFSGRGSGTDFTLRISRVEAEDVGVYYCMQSLEYPFTFGTGTKLEIK | IC50, inhibition of SNB19 cell adhesion to TGFb1 LAP [1]: 1440 pM; Kd [12]: 5.6 nM; EC50 (read off the curve) [13]: ~1 nM; Kd [16]: 1.04 nM |
